From PMC10711550, “Molecular basis for SOX2-dependent regulation of super-enhancer activity” (Nucleic Acids Research, 2023)

Key:
Conditions in all cases: both partners purified
[1] = molecular target: T1, full-length human SOX2 (recombinant, N-terminal His-tag, 327 amino acids) (human, UniProt P48431 1-317); experiment: BLI; 0.2 mg/ml SOX2 immobilised on an AR2G chip, quenched with 1 M ethanolamine; p300 (0-400 nM), KIX (0-43 uM), fragments (3 uM KIX and BR, 0.8 uM KB) in PBS; global fit, 1:1 binding model; BLItz
T1 construct: human SOX2, full length, 317 amino acids; with the tag peptide 327 amino acids; Immobilised on an AR2G chip in BLI
T1 sequence (P48431 whole entry, the tested form may be a part): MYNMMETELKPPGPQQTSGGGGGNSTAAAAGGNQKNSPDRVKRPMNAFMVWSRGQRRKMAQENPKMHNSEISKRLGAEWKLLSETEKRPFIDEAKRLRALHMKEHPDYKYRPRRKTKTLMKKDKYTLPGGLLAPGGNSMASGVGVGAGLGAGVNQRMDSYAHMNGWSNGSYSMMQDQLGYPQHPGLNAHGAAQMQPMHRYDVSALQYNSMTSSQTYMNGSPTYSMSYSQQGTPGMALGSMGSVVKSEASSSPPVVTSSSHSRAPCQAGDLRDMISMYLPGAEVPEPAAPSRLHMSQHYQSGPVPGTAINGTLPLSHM

[2] = molecular target: T2, C-terminal domain of SOX2 (aa 150-317) (human, UniProt P48431 150-317); experiment: BLI; SOX2DBD or SOX2CTD with KIX or bromodomain; who was immobilised not given; global fit to a 1:1 binding model (BLItz Pro v.1.2.1.5)
T2 construct: also called SOX2CTD; CTDSOX2; source: E. coli BL21(DE3), purified from the supernatant (HisTrap HP, Superose 6 Increase)
T2 sequence (P48431 150-317): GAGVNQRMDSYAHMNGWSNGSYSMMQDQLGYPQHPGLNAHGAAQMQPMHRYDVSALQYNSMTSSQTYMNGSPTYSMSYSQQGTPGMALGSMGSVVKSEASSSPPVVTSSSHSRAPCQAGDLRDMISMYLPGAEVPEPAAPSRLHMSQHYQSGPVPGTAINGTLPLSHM

[3] = molecular target: T3, DNA-binding domain of SOX2 (aa 39-127) (human, UniProt P48431 39-127); experiment: as above
T3 construct: also called SOX2DBD; DBDSOX2; source: E. coli BL21(DE3), purified from the supernatant (HisTrap HP, Superose 6 Increase)
T3 sequence (P48431 39-127): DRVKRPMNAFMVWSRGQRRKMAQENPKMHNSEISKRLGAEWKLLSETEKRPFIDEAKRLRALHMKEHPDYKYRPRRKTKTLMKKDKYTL

full-length human SOX2 = molecular target: T4, full-length human SOX2 (human, UniProt P48431 1-317); experiment: BLI; SOX2 (0.2 mg/ml) immobilised on an AR2G chip, quenched with 1 M ethanolamine; p300 fragments in PBS; global fit to a 1:1 binding model (BLItz Pro v.1.2.1.5)
T4 construct: human SOX2, UniProt P48431, 317 amino acids; with the N-terminal His-tag peptide the recombinant protein has 327 amino acids; cloned into the pVFT1S plasmid
T4 sequence (P48431 whole entry, the tested form may be a part): as the sequence (P48431 whole entry, the tested form may be a part) above

B1: p300 bromodomain (aa 1067-1139) (domain or fragment, human, UniProt Q09472 1067-1139, looked up)
chain: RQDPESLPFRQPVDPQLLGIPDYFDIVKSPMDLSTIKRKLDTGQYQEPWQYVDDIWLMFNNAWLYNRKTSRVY
notes: human p300, bromodomain, residues 1067-1139; also called p300BD; BD; source: E. coli BL21(DE3), purified from the supernatant (HisTrap HP, Superose 6 Increase)
fold higher KD than p300KIX [1]: 20.1 fold

B2: p300 bromodomain (aa 1067-1139) (domain or fragment, human, UniProt Q09472 1067-1139, looked up)
chain: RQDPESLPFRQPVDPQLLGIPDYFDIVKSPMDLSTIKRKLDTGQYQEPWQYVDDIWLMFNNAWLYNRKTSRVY
notes: human p300, UniProt Q09472, bromodomain, aa 1067-1139; also called BD; p300BD; source: E. coli BL21(DE3), purified from the supernatant (HisTrap HP, Superose 6 Increase)
koff [2]: 0.0951 s⁻¹ | koff [3]: 0.0265 s⁻¹ | kon [3]: 172 M⁻¹ s⁻¹ | Kd (full-length human SOX2): 54 µM | koff (full-length human SOX2): 0.00606 s⁻¹ | kon (full-length human SOX2): 112 M⁻¹ s⁻¹

B3: p300 KIX-BD fragment (aa 566-1139) (domain or fragment)
chain: not shown
notes: human p300, KIX + bromodomain, residues 566-1139; also called p300KB; KB; source: E. coli BL21(DE3), purified from the supernatant (HisTrap HP, Superose 6 Increase)
fold lower KD than p300BD [1]: 834 fold | fold lower KD than p300KIX [1]: 41.4 fold

B4: p300 KIX domain (aa 566-646) (domain or fragment)
chain: not shown
notes: human p300, UniProt Q09472, KIX domain, aa 566-646; also called KIXp300; source: E. coli BL21(DE3), purified from the supernatant (HisTrap HP, Superose 6 Increase)
koff [2]: 0.0849 s⁻¹ | kon [2]: 1720 M⁻¹ s⁻¹ | koff [3]: 0.0469 s⁻¹ | kon [3]: 5060 M⁻¹ s⁻¹
